From patent CN101896199A

Assays:
[1] = target: HBV表面抗原 (hepatitis B virus surface antigen) (乙型肝炎病毒(HBV)); experiment: ELISA titre (method of Shin YW et al. 2007); formulation after 6 months, 25℃, 60% R.H.
[2] = target: HBV表面抗原 (hepatitis B virus surface antigen) (乙型肝炎病毒(HBV)); experiment: ELISA titre (method of Shin YW et al. 2007); formulation at 0 weeks, 25℃, 60% R.H.
[3] = target: HBV表面抗原 (hepatitis B virus surface antigen) (乙型肝炎病毒(HBV)); experiment: ELISA titre (method of Shin YW et al. 2007); formulation after 3 months
[4] = target: HBV表面抗原 (hepatitis B virus surface antigen) (乙型肝炎病毒(HBV)); experiment: ELISA titre (method of Shin YW et al. 2007); formulation after 3 months, 25℃, 60% R.H.

滴度(IU/mg) [1]: > 2000 IU/mg
滴度(IU/mg) [2]: > 2000 IU/mg
滴度(IU/mg) [3]: > 2000 IU/mg
滴度(IU/mg) [4]: > 2000 IU/mg
Substance: Hepabig基因 (从细胞系HBAb-49, 登录号KCLRF-BP-00054, 产生的针对HBV表面抗原的人抗体) (antibody)
